Measured values from the nanobody polyreactivity screen of Harvey et al. (2022).

Assay: yeast display, Sf9 membrane polyspecificity reagent, FACS + sequencing; frameworks hold sequencing errors
Summary of the method: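 A synthetic nanobody library was expressed on Saccharomyces cerevisiae BJ5465 by galactose induction for 36–48 hours. The library was stained for 1 hour at 4 °C with 10% biotinylated, detergent-solubilized Sf9 membrane reagent and enriched with streptavidin microbeads before FACS. Low and high (top ~1%) gates were set on anti-HA fluorescence for expression and streptavidin fluorescence for reagent binding, and each polyreactivity label reflects the gate of origin.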

Sequence	polyreactivity (PSR sort gate)
QVQLVESGGGLVQAGGSLRLSCAASGGIFYGYAMGWYRQAPGKERELVAAISDSGGSTYYADSVKGRFTISRDNAKNTVYLQMNSLKPEDTAVYYCATDAPVGGYVSEGDYWGQGTQVTVSS	low polyreactivity
QVQLVESGGGLVQAGGSLRLSCAASGFTFPYYAMGWYRQAPGKERELVAAINSVGSTYYADSVKGRFTISRDNAKNTVYLQMNSLKPEDTAVYYCNKRPSHWRHYIMDYWGQGTQVTVSS	high polyreactivity
QVHLQECGDGLVQALGSQRLSCAARCYISGYYYMGWYRQAPGKERELVAGIDAFGSSTNYADCVKGRFTISRYNAKNTVYLQMKSLKPEDTALYYCAARPDGDRLFSYWGQGTQVTVFS	low polyreactivity
QVQLVESGGGLVQSGGSHPLSCAASGRTFYSYAMRGYRQAPGKDSEFVAAIRRCGSSTYYADSVKGRFTISRDNAKNTVYLQMNSLKPEDTAVYYCNAAPYIYPIRGNYWGQGTQETVSS	high polyreactivity
QVQLVESGGGLVQAGGSLRLSCAASGSTFQQYAMGWYRQAPGKERELVAAISWRGGSTYYADSVKGRFTISRDNAKNTVYFQMNSLKPEDTAFYYCAARYQPGGFSRYDYYYWGQGTQVTVSS	high polyreactivity
QVQLVESGGGLVQGGGSLRLSCAASGFIFDDNSMGWYRQAPGKERELVAAITSGGGSTYYADSVKGRFTISRDNAKNTVYLQMNSLKPEDTAVYYCNAVPSQHDEFDYWGQGTQVTVSS	low polyreactivity
QVQLVESGGALVQAGGSIRISCAASGSIFRDYAMGWSRQAPGKERELVAVISIAGRTNYADSVKGRFTISRDNAKNTVYLQMKRLKPEDTAVYYCAADSAWYGYDYWGQGTQVTVSS	low polyreactivity
QGQLVESGGGLVQAGGSLRLSCAASGSIFLGYAMGWYRQAPRKERELVAVITKSRGRTYYADSVKGRFTISRDNAKNTVYFQMNSLKPEDTAVYYCAKQPGSAYDYWGQGTQVTVSS	high polyreactivity
QDQHVESVGGLVQAGGSLRFSCAASGSTFTRYAMGWYRQAPGKERELVAAIDGGGGSTSYADSVKGRFTISRDNAKNTVYLQMNSLKPEDTAVYYCAAPLDTSSSIFDYWGQGTQVTVSS	low polyreactivity
QVQLEESGGGLVQAGGSLRLSCAASGFILCDYAMGWYRQATGKERELVAGINYRGGSTHYADSVKGRFTISRDIAKNTVYLQMNSLKPEDTAVYYCSKRRQSYPYKTSTWYSHYSWGQGTQVTVSS	high polyreactivity
QVQLVESGGGLVQAGGILRLSCAASGSTFGENAMGWYRQSPGKERELVAAISRASSTDYADSVKGRFTISRDNAKNTVYLQMNSLKPEDTAVYYCAVSIFGSFNYDFYSWGQGTQVTVSS	low polyreactivity
QVQLVESGGGLVQAGGSLRLSCAASGRTFRRNTMGWYRQAPGKERELVAAISNRGTSTYYADSVKGRFTFSRDNAKNTVYLQMNSLKPEDTAVYYCAAREKYISYSYYYWGQGTQVTVSS	high polyreactivity
QVQLVESGGGLVQAGGSLRLSCAASGGIFERNDMGWYRQAPGKERELVAGISSVGSTNYADSVKGRFTISRDNAKNTVYLQMNSLKPEDTAVYYCAAGYSRAHDYWGQGTQVTVSS	low polyreactivity
QVQLVESGGGLVQAGGSLRLSCAASGSIFGNNAMGWYRQAPGKERELVAAITSSGGSTYYADSVKGRFTISRDNAKNTVYLQMNSLKPEDTAVYYCATEWSGYTYWFYEWEYGYWGQGTQVTVSS	high polyreactivity
QVQLVESGGGLVQAAGSLRLSCAASGSIFLSYAMGWYRQAPGKERELVAAITTDGGTNYADSVKGRFTISRDNAKNTVYLQMNSLKPEDSAVYYCAADSDPIPLIDYTLPMDYWGQGTQVTVSS	low polyreactivity
QVQLVESCGGLVQAGGSLRLSCAASGRILSSYAMGGNRQAPGKERELVADITQRGGTTYYADSVKGRFSISRDNAKNTVYLQMNRLKPEDTAVYYCNAKSYRSYGGRGGVEYDYCGQGTQVTVSS	low polyreactivity

Sequence	polyreactivity (PSR sort gate)
QVQLVESGGGLVQAGGSLRLICAPSGIIFTSNTMGWSRQAPGNERECVASINWNGSSTYADSVKGRFTISRDIAKNTVYLQMNSLKPEDTAVFYCNADYNRNSVQFSLYDYWGQGTQVTVSS	low polyreactivity
QVQLVESGGGLVQAGGSLRLSCAASGFTFGDYAMGWYRQAPGKERELVAAISRSGSNTYYADSVKGRFTISRDNAKNTVYLQMNSQKPEDTAVYYCNADYDPEDMDYWGQGTQVTVSS	low polyreactivity
QVQLVESGGGLVQAGGILRLSCAASGFILWYYTMGWSRQAPGKERELVAAISRGGTTYYADSVKGRFTISRDTAKNTVYLQMYSLKPEDTAVYYCNAPYNTHGIVLYDYWGQGTQVTVSS	low polyreactivity
QVQLVESGGGLVQAGGSLRLSSAASGFIFTYYAMGWYRQAPGKERELVAVITRGDSTYYADSVKGRFTISRDNAKNTVYLQMNSLKPEDTAVYYCAARGYFGWSGYSVPSTAYGYWGQGTQVTVSS	high polyreactivity
QVQLVESGGGLVQAGGSLRLSCAASGYTFLYYAMGWYRQAPGKEREFVAAISRSGGSTYYADSVKGRFTISRDNAKNTVYLQMISLKPEDTAVYYCAARFRYQHQRGDYWGQGTQVTVSS	high polyreactivity
QVQLVESGGGLVQAGGSLRLSCAASGSIFGKYTMGWYRQAPGKERELVAAITSGGSTNYADSVKGRFTISRDNAKNSVYLQMNSLKPEDTSVYYCAAPGTWIPSSTECGDGYDYWGQGTQVTVSS	low polyreactivity
QVQLVESGGGLVQAGGSLRLSCAASGRIFKVYAMGWSRQAPGKERELVAAITSGGSTNYADSVKGRFTISRDNAKTTVYLQMNSRKPEDTAVYYCAVVSGRWSAVQYDYWGQGTQVTVSS	high polyreactivity
QVQLQESGGGVQAGGSLRLSCAASGSISAPILMGWYRQAPGKERELVAGIGGGANTYYADSVKGRFTFSRDNAKYTVYLQMYSLKPEDTAVYYCAAGDYYWTNFGYWGQGTQVTASS	high polyreactivity
QVQLVESGGGLVQAGGSLRLSCAASGFIFRYYAMGWYRQAPGKERELVARINKSGGYTYYADSVKGRFTISRDNAKNTVYLQMNSLKPEDTAVYYCNRVRVFSVPFDYWGQGTQVTVSS	high polyreactivity
QVQLVESGGGLVQAGGSLRLSCAASGSTFWRYAMGWYRQAPGKERELVAAITSSGDRTYYADSVKGRFTISRDNAKNTVYLQMNSLKPEDTAVYYCAAALWSSRGYYYAYYYWGQGTQVTVSS	high polyreactivity
QVQLVESGGGLVQAGGSLRLSCAASGRTFRRNTMGWYRQATGKERAFVAAITFSGVRTYYADSVKGRFTISRDNAKNTVYLQMNSLKPEDTAVYYCANSRQYIGGFDYWGQGTQVTVSS	high polyreactivity
QVQLVESGGGLVQAGGSLRLSCAASGSIFYYYAMGWYRQAPGKERELVADISISGGSTYYADSVKGRFTISRDNAKNTVYLQMNSLKPEDTAVYYCAATDYLWEPTVSNWGYTFDSWGQGTQVTVSS	low polyreactivity
QVQLVESGGGLVQAGGSLRLSCAASGFIFTKYTMGWYRQAPGKERELVAAITGRGTSTYADSVKGRFTISRDNAKNTVYLPMNSLIPEDTAVYYCAAVGWFAVFLFSDINGYYLGQGTQVTVSS	low polyreactivity
QVQRLESGGGLVQAGGSLRLSCAASGGTIDWNAMGWYRQAPGKETEFVAAITSSGGSTYYADSVKGRFTISRDNAKNSVYLQMTSLKPEDTAVYECAADFWYYQYPYGGGGYWGQGTQVTVSS	low polyreactivity
QVQLVESGGGLVQAGGSLRLSCAASGSIFFEYAMGWYRQATGKERELVAAISRRGGSTYYADSVKGRFTISRDNAKNTVYVQMNSLKPEDTAVYYCNKVNRASRGDYDYWGQGTQVTVSS	high polyreactivity
